Results as given in article PMC6876572.

Columns and labels:
[1] = molecular target: Cof1-decorated (Cofilin-saturated) actin filament (rabbit | S. cerevisiae) (UniProt P68135); assay: single-molecule two-colour TIRF imaging; actin filaments (10% Alexa-488, 0.5% biotinylated) anchored along their lengths on streptavidin-coated coverslips, exposed to a mixture of Cy5-Srv2ΔCARP (8.3 or 83 nM hexamers) and 1 µM yeast Cof1 in TIRF buffer (10 mM imidazole pH 7.4, 50 mM KCl, 1 mM MgCl2, 1 mM EGTA, 0.2 mM ATP, 10 mM DTT); dwell and waiting times at the pointed end; kon corrected for unlabeled molecules
[2] = molecular target: Cof1-decorated (Cofilin-saturated) actin filament (rabbit | S. cerevisiae) (UniProt P68135)

| average dwell time at the pointed end [1] | fractional occupancy of filament ends at 8.3 nM (calculated from kon and koff) [1] | fractional occupancy of filament ends at 83 nM (calculated from kon and koff) [1] | koff [1] | kon [1] | KM of the rate of pointed-end depolymerization against N-Srv2 concentration at 1 µM Cof1 (mf-TIRF, fit to the Michaelis-Menten equation) [2] | Substance |
| --- | --- | --- | --- | --- | --- | --- |
| 2.2 s | 16% | 66% | 0.45 s⁻¹ | 1.1e+07 M⁻¹ s⁻¹ |  | Cy5-maleimide-labeled Srv2ΔCARP (S. cerevisiae Srv2/CAP lacking the CARP domain) (from UniProt P17555 1-526) (domain or fragment) |
|  |  |  |  |  | 0.05 µM | N-Srv2 (N-terminal half of S. cerevisiae Srv2/CAP) (domain or fragment) |
